From the supplement of paper PMC10266784

B1: library; numbered along this chain (parent)
chain: MAAAAAAAAEQQSSNGPVKKSMREKAVERRSVNKEHNSNFKAGYIPIDEDRLHKTGLRGRKGNLAICVIILLFILAVINLIITLVIWAVIRIGPNGCDSMEFHESGLLRFKQVSDMGVIHPLYKSTVGGRRNENLVITGNNQPIVFQQGTTKLSVENNKTSITSDIGMQFFDPRTQNILFSTDYETHEFHLPSGVKSLNVQKASTERITSNATSDLNIKVDGRAIVRGNEGVFIMGKTIEFHMGGNMELKAENSIILNGSVMVSTTRLPSSSSGDQLGSGDWVRYKLCMCADGTLFKVQVTSQNMGCQISDNPCGNTH

Variants of: B1
Test: SGCB cell-surface expression functional score (HA stain, bin4 vs bin1, normalised to synonymous) (log10 ratio); higher = more cell-surface SGCB (functional)
Method in brief: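 Human beta-sarcoglycan, tagged with HA and fused to YFP, was built into codon-saturation libraries and delivered by lentivirus at MOI <0.1 into HEK293 cells that stably express alpha-, gamma- and delta-sarcoglycan. After 72 hours, YFP-positive cells were sorted and grown for 5–7 days, then stained on ice with Alexa Fluor 647 anti-HA, fixed, sorted into four 5% intensity bins and amplicon-sequenced. Each variant's functional score is the log ratio of its frequency in the highest bin to that in the lowest bin, taken as the median across codons and transductions. Transductions were done in duplicate, and synonymous variants were scaled per section to mean 0, SD 0.5.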

First: MAAAAAAAAEQQSSNGPVKKSMREKAVERRSVNKEHNSNFKAGYIPIDEDRLHKTGLRGRKGNLAICVIILLFILAVINLIITLVIWAVIRIGPNGCDSMEFHTSGLLRFKQVSDMGVIHPLYKSTVGGRRNENLVITGNNQPIVFQQGTTKLSVENNKTSITSDIGMQFFDPRTQNILFSTDYETHEFHLPSGVKSLNVQKASTERITSNATSDLNIKVDGRAIVRGNEGVFIMGKTIEFHMGGNMELKAENSIILNGSVMVSTTRLPSSSSGDQLGSGDWVRYKLCMCADGTLFKVQVTSQNMGCQISDNPCGNTH [E104T]
Second: MAAAAAAAAEQQSSNGPVKKSMREKAVERRSVNKEHNSNFKAGYIPIDEDRLHKTGLRGRKGNLAICVIILLFILAVINLIITLVIWAVIRIGPNGCDSMEFHRSGLLRFKQVSDMGVIHPLYKSTVGGRRNENLVITGNNQPIVFQQGTTKLSVENNKTSITSDIGMQFFDPRTQNILFSTDYETHEFHLPSGVKSLNVQKASTERITSNATSDLNIKVDGRAIVRGNEGVFIMGKTIEFHMGGNMELKAENSIILNGSVMVSTTRLPSSSSGDQLGSGDWVRYKLCMCADGTLFKVQVTSQNMGCQISDNPCGNTH [E104R]
The “SGCB cell-surface expression functional score (log10)” value of the first is higher: 0.51 for the first, 0.26 for the second.

MAAAAAAAAEQQSSNGPVKKSMREKAVERRSVNKEHNSNFKAGYIPIDEDRLHKTGLRGRKGNLAICVIILLFILAVINLIITLVIWAVIRIGPNGCDSMEFHWSGLLRFKQVSDMGVIHPLYKSTVGGRRNENLVITGNNQPIVFQQGTTKLSVENNKTSITSDIGMQFFDPRTQNILFSTDYETHEFHLPSGVKSLNVQKASTERITSNATSDLNIKVDGRAIVRGNEGVFIMGKTIEFHMGGNMELKAENSIILNGSVMVSTTRLPSSSSGDQLGSGDWVRYKLCMCADGTLFKVQVTSQNMGCQISDNPCGNTH [E104W] and MAAAAAAAAEQQSSNGPVKKSMREKAVERRSVNKEHNSNFKAGYIPIDEDRLHKTGLRGRKGNLAICVIILLFILAVINLIITLVIWAVIRIGPNGCDSMEFHYSGLLRFKQVSDMGVIHPLYKSTVGGRRNENLVITGNNQPIVFQQGTTKLSVENNKTSITSDIGMQFFDPRTQNILFSTDYETHEFHLPSGVKSLNVQKASTERITSNATSDLNIKVDGRAIVRGNEGVFIMGKTIEFHMGGNMELKAENSIILNGSVMVSTTRLPSSSSGDQLGSGDWVRYKLCMCADGTLFKVQVTSQNMGCQISDNPCGNTH [E104Y] are within 0.2 log units of each other in “SGCB cell-surface expression functional score (log10)” value: -0.09 for the first, 0.03 for the second.

Going from MAAAAAAAAEQQSSNGPVKKSMREKAVERRSVNKEHNSNFKAGYIPIDEDRLHKTGLRGRKGNLAICVIILLFILAVINLIITLVIWAVIRIGPNGCDSMEFHSSGLLRFKQVSDMGVIHPLYKSTVGGRRNENLVITGNNQPIVFQQGTTKLSVENNKTSITSDIGMQFFDPRTQNILFSTDYETHEFHLPSGVKSLNVQKASTERITSNATSDLNIKVDGRAIVRGNEGVFIMGKTIEFHMGGNMELKAENSIILNGSVMVSTTRLPSSSSGDQLGSGDWVRYKLCMCADGTLFKVQVTSQNMGCQISDNPCGNTH [E104S] to MAAAAAAAAEQQSSNGPVKKSMREKAVERRSVNKEHNSNFKAGYIPIDEDRLHKTGLRGRKGNLAICVIILLFILAVINLIITLVIWAVIRIGPNGCDSMEFHVSGLLRFKQVSDMGVIHPLYKSTVGGRRNENLVITGNNQPIVFQQGTTKLSVENNKTSITSDIGMQFFDPRTQNILFSTDYETHEFHLPSGVKSLNVQKASTERITSNATSDLNIKVDGRAIVRGNEGVFIMGKTIEFHMGGNMELKAENSIILNGSVMVSTTRLPSSSSGDQLGSGDWVRYKLCMCADGTLFKVQVTSQNMGCQISDNPCGNTH [E104V], the “SGCB cell-surface expression functional score (log10)” value falls from 0.39 to 0.

MAAAAAAAAEQQSSNGPVKKSMREKAVERRSVNKEHNSNFKAGYIPIDEDRLHKTGLRGRKGNLAICVIILLFILAVINLIITLVIWAVIRIGPNGCDSMEFHEAGLLRFKQVSDMGVIHPLYKSTVGGRRNENLVITGNNQPIVFQQGTTKLSVENNKTSITSDIGMQFFDPRTQNILFSTDYETHEFHLPSGVKSLNVQKASTERITSNATSDLNIKVDGRAIVRGNEGVFIMGKTIEFHMGGNMELKAENSIILNGSVMVSTTRLPSSSSGDQLGSGDWVRYKLCMCADGTLFKVQVTSQNMGCQISDNPCGNTH [S105A] and MAAAAAAAAEQQSSNGPVKKSMREKAVERRSVNKEHNSNFKAGYIPIDEDRLHKTGLRGRKGNLAICVIILLFILAVINLIITLVIWAVIRIGPNGCDSMEFHEDGLLRFKQVSDMGVIHPLYKSTVGGRRNENLVITGNNQPIVFQQGTTKLSVENNKTSITSDIGMQFFDPRTQNILFSTDYETHEFHLPSGVKSLNVQKASTERITSNATSDLNIKVDGRAIVRGNEGVFIMGKTIEFHMGGNMELKAENSIILNGSVMVSTTRLPSSSSGDQLGSGDWVRYKLCMCADGTLFKVQVTSQNMGCQISDNPCGNTH [S105D] are within 0.2 log units of each other in “SGCB cell-surface expression functional score (log10)” value: -0.09 for the first, 0.04 for the second.

MAAAAAAAAEQQSSNGPVKKSMREKAVERRSVNKEHNSNFKAGYIPIDEDRLHKTGLRGRKGNLAICVIILLFILAVINLIITLVIWAVIRIGPNGCDSMEFHEEGLLRFKQVSDMGVIHPLYKSTVGGRRNENLVITGNNQPIVFQQGTTKLSVENNKTSITSDIGMQFFDPRTQNILFSTDYETHEFHLPSGVKSLNVQKASTERITSNATSDLNIKVDGRAIVRGNEGVFIMGKTIEFHMGGNMELKAENSIILNGSVMVSTTRLPSSSSGDQLGSGDWVRYKLCMCADGTLFKVQVTSQNMGCQISDNPCGNTH [S105E] and MAAAAAAAAEQQSSNGPVKKSMREKAVERRSVNKEHNSNFKAGYIPIDEDRLHKTGLRGRKGNLAICVIILLFILAVINLIITLVIWAVIRIGPNGCDSMEFHECGLLRFKQVSDMGVIHPLYKSTVGGRRNENLVITGNNQPIVFQQGTTKLSVENNKTSITSDIGMQFFDPRTQNILFSTDYETHEFHLPSGVKSLNVQKASTERITSNATSDLNIKVDGRAIVRGNEGVFIMGKTIEFHMGGNMELKAENSIILNGSVMVSTTRLPSSSSGDQLGSGDWVRYKLCMCADGTLFKVQVTSQNMGCQISDNPCGNTH [S105C] are within 0.2 log units of each other in “SGCB cell-surface expression functional score (log10)” value: -0.29 for the first, -0.21 for the second.
